Laboratory results published in publication PMC3057456.

Test system: LUX ARRHYTHMO (LUX/PCL1) (Arabidopsis)
Test: protein binding microarray
Conditions: not stated in the material

## PBM top-ranked 8-mer AGATACGC
  binding signal (PBM E-score (-0.5 to 0.5)): 0.487
